Test results from US20180258175A1 (ABLEXIS, published 2018).
Changes are numbered by the printed parent chain.

B1: CCK-464A (antibody, V domains shown)
VH: EVQLVESGGGLVKPGGSLRLSCAASGFTFSSYNMNWVRQAPGKGLEWVSSISSSSTYIYYADSLKGRFTISRDNAMNSLYLQMSSLRAEDTAVYYCARDSGTYPYYYFGMDVWGQGTTVTVSS
VL: DIQLTQSPSFLSASVGDRVTITCRASQGISSYLAWYQQKPGKAPKLLIYAASTLQSGVPSRFSGSGSGTEFTLTISSLQPEDFATYYCQQLNTYPRTFGQGTKVEIK
notes: AlivaMab chimeric IgG, human kappa LC
B2: CCK-456A (antibody, V domains shown)
VH: EVHLVESGGGLVKPGGSLRLSCAASGFTFSSYSMNWFRQAPGKGLEWVSSISSSSSYIYYADSVKGRFTISRDNAKNSLSLQMNSLRAEDTAVYYCARAGAVAALYNWFDPWGQGTLVTVSS
VL: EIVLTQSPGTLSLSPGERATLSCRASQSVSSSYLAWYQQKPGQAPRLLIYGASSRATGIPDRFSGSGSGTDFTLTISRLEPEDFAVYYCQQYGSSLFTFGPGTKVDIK
notes: as for B1
B3: CCK-418A (antibody, V domains shown)
VH: QVQLQESGPGLVKPSETLSLTCTVSGGSISSYYWSWIRQPAGKGLEWIGRIYTSGTTNFNPSLKSRVTMSVDTSKNQFSLKLSSVTAADTAVYYCATLSGTNWGSPFDYWGQGTLVTVSS
VL: not shown
notes: as for B1
B4: CCK-514A (antibody, V domains shown)
VH: EVQLVESGGGLVKPGGSLRLSCAASGFTFSSYSMNWVRQAPGKGLEWVSSISSSSSYIYYADSVKGRFTISRDNAKNSLYLQMNSLRAEDTAVYYCARGGSYPYNWFDPWGQGTLVTVSS
VL: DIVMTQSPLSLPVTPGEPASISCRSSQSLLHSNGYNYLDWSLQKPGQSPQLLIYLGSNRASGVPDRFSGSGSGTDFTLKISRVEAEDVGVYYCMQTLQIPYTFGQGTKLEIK
notes: as for B1
B5: CCK-519A (antibody, V domains shown)
VH: not shown
VL: DIVMTQTPLSLPVTPGEPASISCRSSQSLLDSDDGNTYLDWYLQKPGQSPQLLIYTLSYRASGVPDRFSGSGSGTDFTLKISRVEAEDVGVYYCMQRIEFPITFGQGTRLEIK
notes: as for B1
B6: 429 (Table 4, bin 1C block) (antibody, V domains shown)
VH: QVQLEQSGAEVKRPGASVKVSCKASGYTFTGYYMHWVRQAPGQGLEWMGWINPNRGDTNYAQKFQGRVTMTRDTSISTAYMELSRLRSDDTAVYYCARDLEGGGPFDYWGQGTLVTVSS
VL: B5 VL with I102S
notes: not tied
B7: CCK-468A (antibody, V domains shown)
VH: EVQLVESGGGLVQPGRSLRLSCTASGFTFGDYAMTWFRQAPGKGLEWVGFIRSKAYGGTTEYAASVKGRFTISRDDSKSIAYLQMNSLKTEDTAVYYCTREGSFGALDIWGQGTMVTVSS
VL: not shown
notes: as for B1
B8: 487 (Table 4, bin 3 block) (antibody, V domains shown)
VH: QVQLQESGPGLVKPSETLSLTCTVSGGSISSYYWSWIRQPAGKGLEWIGHIFSSGSTNYNPSLKSRVTMSVDTSKSQFSLKLSSVTAADTAVYLCARGGVTWFDPWGQGTLVTVSS
VL: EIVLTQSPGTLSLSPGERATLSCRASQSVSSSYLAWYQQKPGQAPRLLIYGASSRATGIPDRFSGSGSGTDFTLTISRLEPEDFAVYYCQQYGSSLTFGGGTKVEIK
notes: not tied
B9: 549 (Table 4, bin 1D block) (antibody, V domains shown)
VH: QVQFVESGGGVVQPGRSLRLSCAASGFTLSSYGMHWVRQAPGKGLEWVAVIWYDGSNEYYADSVKGRFTISRDNSKNTLYLQMNSLRAEDTAVYYCARDRAWGSGDWGQGTLVTVSS
VL: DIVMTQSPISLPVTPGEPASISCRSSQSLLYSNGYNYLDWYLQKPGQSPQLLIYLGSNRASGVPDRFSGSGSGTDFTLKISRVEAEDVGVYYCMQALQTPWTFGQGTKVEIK
notes: not tied
B10: CCK-539A (antibody, V domains shown)
VH: QVQLVESGGGVVQPGRSLRLSCAASGFTFSTFAMHWVRQAPGKGLEWVAVISYDGSNKYYVDSVKGRFTISRDNSKNTLYLQMNSLRAEDTAMYYCARDGTGDALDIWGQGTMVTVSS
VL: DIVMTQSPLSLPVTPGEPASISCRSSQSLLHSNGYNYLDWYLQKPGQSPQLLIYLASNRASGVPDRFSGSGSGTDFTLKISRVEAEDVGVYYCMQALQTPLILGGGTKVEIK
notes: as for B1
B11: CCK-533A (antibody, V domains shown)
VH: QVQLVQSGAEVKKPGASVKVSCKASGYTFTGYYMHWVRQAPGQGLEWMGRINPNSGGTYYAQKFQGRVTMTRDTSISTAYVELSRLRSDDTAVYYCARKNPWGHFDYWGQGTLVTVSS
VL: B5 VL with I102Y, R109K
notes: as for B1
B12: CCK-407A (antibody, V domains shown)
VH: B8 VH
VL: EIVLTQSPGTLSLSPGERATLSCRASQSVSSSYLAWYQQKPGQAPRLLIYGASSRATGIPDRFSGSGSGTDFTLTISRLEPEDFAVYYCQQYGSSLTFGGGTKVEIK
notes: as for B1

molecular target: T1, human CD115 extracellular domain (Sino Biological 10161-H08H) (human, UniProt P07333 20-517); assay: competition ELISA, competitor TMR 20A;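 note: epitope binning by ELISA, anti-huCD115 hybridoma supernatant antibodies tested for binding to huCD115 with the competitor antibody present, loss of binding placing them in the competitor's bin; low signal means same epitope bin as the mouse competitor antibody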
T1 construct: extracellular domain; bought recombinant protein; also called huCD115; hu-CD115

Row | Binder | signal vs NO COMP=100 [%]
1 | B1 | 87
2 | B2 | 73
3 | B3 | 89
4 | B4 | 84
5 | B5 | 6
6 | B6 | 84
7 | B7 | 53
8 | B8 | 97
9 | B9 | 59

molecular target: T1, human CD115 extracellular domain (Sino …); assay: competition ELISA, competitor TMR 24A;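 note: clonal anti-huCD115 hybridoma supernatant antibodies bound with a competitor mouse antibody present, and failure to bind puts a clone in that competitor's epitope bin; low signal means same epitope bin as the mouse competitor antibody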

Row | Binder | signal vs NO COMP=100 [%]
10 | B1 | 39
11 | B2 | 42
12 | B3 | 35
13 | B4 | 53
14 | B5 | 110
15 | B6 | 75
16 | B7 | 85
17 | B8 | 86
18 | B9 | 111

molecular target: T1, human CD115 extracellular domain (Sino …); assay: competition ELISA, competitor TMR 35A;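 note: clonal hybridoma supernatant antibodies added to wells after the competitor mouse antibody, lost binding signal puts an antibody in that competitor's epitope bin; low signal means same epitope bin as the mouse competitor antibody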

Row | Binder | signal vs NO COMP=100 [%]
19 | B1 | 85
20 | B2 | 64
21 | B3 | 82
22 | B4 | 75
23 | B5 | 110
24 | B6 | 112
25 | B7 | 104
26 | B8 | 6
27 | B9 | 89

molecular target: T1, human CD115 extracellular domain (Sino …); assay: competition ELISA, competitor TMR 44B;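 note: binding of antibodies from single-clone hybridoma supernatants to huCD115 measured with the competitor antibody present, a drop in signal meaning both share an epitope bin; low signal means same epitope bin as the mouse competitor antibody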

Row | Binder | signal vs NO COMP=100 [%]
28 | B1 | 0
29 | B2 | 27
30 | B3 | 3
31 | B4 | 4
32 | B5 | 12
33 | B6 | 45
34 | B7 | 24
35 | B8 | 94
36 | B9 | 2

molecular target: T1, human CD115 extracellular domain (Sino …); assay: competition ELISA, competitor TMR 95A

Row | Binder | signal vs NO COMP=100 [%]
37 | B1 | 57
38 | B2 | 27
39 | B3 | 10
40 | B4 | 42
41 | B5 | 36
42 | B6 | 38
43 | B7 | 61
44 | B8 | 84
45 | B9 | 1

molecular target: T1, human CD115 extracellular domain (Sino …); assay: competition ELISA, competitor TMR 100A

Row | Binder | signal vs NO COMP=100 [%]
46 | B1 | 96
47 | B2 | 96
48 | B3 | 106
49 | B4 | 103
50 | B5 | 118
51 | B6 | 107
52 | B7 | 95
53 | B8 | 103
54 | B9 | 100

molecular target: T1, human CD115 extracellular domain (Sino …); assay: SPR ProteOn, supernatant mAb captured on anti-mouse IgG, Hu CD115 analyte

Row | Binder | Kd [pM] | koff [s⁻¹] | kon [M⁻¹ s⁻¹]
55 | B2 | 1970 | 5.3e-05 | 27000
56 | B3 | 158 | 2.11e-05 | 133000
57 | B10 | 2700 | 8.5e-05 | 32000
58 | B5 | 860 | 7.71e-05 | 90000
59 | B11 | 317 | 3.92e-05 | 124000
60 | B12 | 950 | 6.54e-05 | 69000
